Laboratory results reported in patent US20230235013A1 (MABSOLVE, published 2023).
Residue numbers refer to the chain shown, from its start. In names and notes the source's numbering stands.

Tests used:
[1] = target: T1, human FcγRIIIB (NA2 allotype, Sino Biological Cat. No. 11046-H08H) (human, UniProt O75015 17-200); experiment: SPR, captured His-receptor
T1 construct: bought; also called human FcγRIIIb NA2 allele

[2] = target: T2, Histidine-tagged recombinant human FcγRI (CD64) (human, UniProt P12314 16-288); experiment: SPR, captured His-receptor
T2 construct: bought; also called Sino Biological Cat. No. 12056-H08H

[3] = target: T3, human FcγRIIA (R131, Sino Biological Cat. No. 10374-H08H) (human, UniProt P12318 34-218); experiment: SPR, captured His-receptor
T3 construct: bought; also called human FcγRIIa R131 allele; FcγRII allele R131
T3 sequence (looked up): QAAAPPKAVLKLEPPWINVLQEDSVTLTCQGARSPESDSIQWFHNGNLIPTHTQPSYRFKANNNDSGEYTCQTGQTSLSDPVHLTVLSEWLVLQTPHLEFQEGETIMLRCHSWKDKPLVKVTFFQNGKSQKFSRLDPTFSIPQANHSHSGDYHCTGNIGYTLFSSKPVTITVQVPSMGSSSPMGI

[4] = target: T4, Human C1q (Sigma Cat. No. 20476), HRP-labelled (human, UniProt P02745 23-245; P02746 28-253; P02747 29-245); experiment: ELISA, antibody coated, HRP-C1q; Expt 1, buffer alone 0.053
T4 construct: Coupled to horse-radish peroxidase with Lightning-Link kit; also called HRP-labelled C1q

[5] = target: T4, Human C1q (Sigma Cat. No. 20476), …; experiment: ELISA, antibody coated, HRP-C1q; Expt 2, buffer alone 0.051
[6] = target: T2, Histidine-tagged recombinant human …; experiment: SPR, culture supernatant, captured His-FcγRI;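 note: biacore T200 SPR at 25 °C, anti-His capture, supernatants of HEK293 cells expressing IgG1 Fc variants injected 1 min, reference-subtracted response read 55 s after injection start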

B1: anti-CD20 rabbit IgG L234Q/L235S/G236R (antibody)
heavy: QVQLQQPGAELVKPGASVKMSCKASGYTFTSYNMHWVKQTPGRGLEWIGAIYPGNGDTSYNQKFKGKATLTADKSSSTAYMQLSSLTSEDSAVYYCARSTYYGGDWYFNVWGAGTTVTVSSGQPKAPSVFPLAPCCGDTPSSTVTLGCLVKGYLPEPVTVTWNSGTLTNGVRTFPSVRQSSGLYSLSSVVSVTSSSQPVTCNVAHPATNTKVDKTVAPSTCSKPTCPPPEQSRGPSVFIFPPKPKDTLMISRTPEVTCVVVDVSEDDPEVQFTWYINNEQVRTARPPLREQQFNSTIRVVSTLPIAHEDWLRGKEFKCKVHNKALPAPIEKTISKARGQPLEPKVYTMGPPREELSSRSVSLTCMINGFYPSDISVEWEKNGKAEDNYKTTPAVLDSDGSYFLYSKLSVPTSEWQRGDVFTCSVMHEALHNHYTQKSISRSPGK
light: QIVLSQSPAILSASPGEKVTMTCRASSSVSYIHWFQQKPGSSPKPWIYATSNLASGVPVRFSGSGSGTSYSLTISRVEAEDAATYYCQQWTSNPPTFGGGTKLEIKRDPVAPSVLLFPPSKEELTTGTATIVCVANKFYPSDITVTWKVDGTTQQSGIENSKTPQSPEDNTYSLSSTLSLTSAQYNSHSVYTCEVVQGSASPIVQSFNRGDC
notes: also called 23.77
- binding result [1]: no binding (tested: 100 µg/mL)
- binding result [2]: no binding (tested: 100 µg/mL)
- binding result [3]: no binding (tested: 100 µg/mL)

B2: anti-CD52 (alemtuzumab) human IgG1 wild-type reference (antibody)
heavy: not shown
light: not shown
notes: also called 4-1; copies: 2 + 2
- Mean Absorbance [4]: 1.42 absorbance (450 nm)
- Mean Absorbance [5]: 0.649 absorbance (450 nm)

B3: anti-CD52 (alemtuzumab) human IgG1 L234S/L235V/G236R (antibody)
heavy: QVQLQESGPGLVRPSQTLSLTCTVSGFTFTDFYMNWVRQPPGRGLEWIGFIRDKAKGYTTEYNPSVKGRVTMLVDTSKNQFSLRLSSVTAADTAVYYCAREGHTAAPFDYWGQGSLVTVSSASTKGPSVFPLAPSSKSTSGGTAALGCLVKDYFPEPVTVSWNSGALTSGVHTFPAVLQSSGLYSLSSVVTVPSSSLGTQTYICNVNHKPSNTKVDKKVEPKSCDKTHTCPPCPAPESVRGPSVFLFPPKPKDTLMISRTPEVTCVVVDVSHEDPEVKFNWYVDGVEVHNAKTKPREEQYNSTYRVVSVLTVLHQDWLNGKEYKCKVSNKALPAPIEKTISKAKGQPREPQVYTLPPSRDELTKNQVSLTCLVKGFYPSDIAVEWESNGQPENNYKTTPPVLDSDGSFFLYSKLTVDKSRWQQGNVFSCSVMHEALHNHYTQKSLSLSPGK
light: not shown
notes: EU numbering; also called 4-53; copies: 2 + 2
- Mean Absorbance [4]: 0.057 absorbance (450 nm)
- Mean Absorbance [5]: 0.059 absorbance (450 nm)

B4: anti-CD52 (alemtuzumab) human IgG1 L234G/L235S/G236R (antibody)
heavy: B3 heavy with S238G, V239S
light: not shown
notes: EU numbering; also called 4-19; copies: 2 + 2
- Mean Absorbance [4]: 0.053 absorbance (450 nm)
- Mean Absorbance [5]: 0.056 absorbance (450 nm)

B5: anti-CD52 (alemtuzumab) human IgG1 L234S/L235T/G236R (antibody)
heavy: B3 heavy with V239T
light: not shown
notes: EU numbering; also called 4-52; copies: 2 + 2
- Mean Absorbance [4]: 0.052 absorbance (450 nm)
- Mean Absorbance [5]: 0.053 absorbance (450 nm)

B6: anti-CD52 (alemtuzumab) human IgG1 L234T/L235Q/G236R (antibody)
heavy: B3 heavy with S238T, V239Q
light: not shown
notes: EU numbering; also called 4-60; copies: 2 + 2
- Mean Absorbance [4]: 0.056 absorbance (450 nm)
- Mean Absorbance [5]: 0.052 absorbance (450 nm)

B7: anti-CD52 (alemtuzumab) human IgG1 N297Q (aglycosyl) (antibody)
heavy: not shown
light: not shown
notes: EU numbering; also called 4-67; copies: 2 + 2
- Mean Absorbance [4]: 0.051 absorbance (450 nm)
- Mean Absorbance [5]: 0.044 absorbance (450 nm)

B8: anti-CD3 (muromonab) human IgG1 wild-type reference (antibody)
heavy: not shown
light: QIVLTQSPAIMSASPGEKVTMTCSASSSVSYMNWYQQKSGTSPKRWIYDTSKLASGVPAHFRGSGSGTSYSLTISGMEAEDAATYYCQQWSSNPFTFGSGTKLEIKRTVAAPSVFIFPPSDEQLKSGTASVVCLLNNFYPREAKVQWKVDNALQSGNSQESVTEQDSKDSTYSLSSTLTLSKADYEKHKVYACEVTHQGLSSPVTKSFNRGEC
notes: also called 3-1; copies: 2 + 2
- Mean Absorbance [4]: 0.769 absorbance (450 nm)
- Mean Absorbance [5]: 0.432 absorbance (450 nm)

B9: anti-CD3 (muromonab) human IgG1 L234S/L235V/G236R (antibody)
heavy: not shown
light: B8 light
notes: EU numbering; also called 3-53; copies: 2 + 2
- Mean Absorbance [4]: 0.047 absorbance (450 nm)
- Mean Absorbance [5]: 0.042 absorbance (450 nm)

B10: anti-CD3 (muromonab) human IgG1 L234G/L235S/G236R (antibody)
heavy: not shown
light: B8 light
notes: EU numbering; also called 3-19; copies: 2 + 2
- Mean Absorbance [4]: 0.052 absorbance (450 nm)
- Mean Absorbance [5]: 0.049 absorbance (450 nm)

B11: anti-CD3 (muromonab) human IgG1 L234S/L235T/G236R (antibody)
heavy: not shown
light: B8 light
notes: EU numbering; also called 3-52; copies: 2 + 2
- Mean Absorbance [4]: 0.048 absorbance (450 nm)
- Mean Absorbance [5]: 0.046 absorbance (450 nm)

B12: anti-CD3 (muromonab) human IgG1 L234A/L235A/P329G (LALAPG reference) (antibody)
heavy: not shown
light: B8 light
notes: EU numbering; also called 3-66; copies: 2 + 2
- Mean Absorbance [4]: 0.052 absorbance (450 nm)
- Mean Absorbance [5]: 0.044 absorbance (450 nm)

B13: anti-CD3 (muromonab) human IgG1 L234A/L235A (LALA) (antibody)
heavy: not shown
light: B8 light
notes: EU numbering; also called 3-65; copies: 2 + 2
- Mean Absorbance [4]: 0.053 absorbance (450 nm)
- Mean Absorbance [5]: 0.051 absorbance (450 nm)

B14: anti-CD3 (muromonab) human IgG1 N297Q (aglycosyl) (antibody)
heavy: not shown
light: B8 light
notes: EU numbering; also called 3-67; copies: 2 + 2
- Mean Absorbance [4]: 0.052 absorbance (450 nm)
- Mean Absorbance [5]: 0.051 absorbance (450 nm)

B15: anti-CD3 (muromonab) human IgG1 L234T/L235Q/G236R (antibody)
heavy: not shown
light: B8 light
notes: EU numbering; also called 3-60; copies: 2 + 2
- Mean Absorbance [4]: 0.047 absorbance (450 nm)
- Mean Absorbance [5]: 0.045 absorbance (450 nm)

B16: anti-CD3 (muromonab) human IgG1 L234T/L235T/G236R (antibody)
heavy: not shown
light: B8 light
notes: EU numbering; also called 3-63; copies: 2 + 2
- Mean Absorbance [4]: 0.047 absorbance (450 nm)
- Mean Absorbance [5]: 0.048 absorbance (450 nm)

B17: anti-CD20 (rituximab variable regions) mouse IgG2a L234Q/L235S/G236R (antibody)
heavy: QVQLQQPGAELVKPGASVKMSCKASGYTFTSYNMHWVKQTPGRGLEWIGAIYPGNGDTSYNQKFKGKATLTADKSSSTAYMQLSSLTSEDSAVYYCARSTYYGGDWYFNVWGAGTTVTVSSAKTTAPSVYPLAPVCGDTTGSSVTLGCLVKGYFPEPVTLTWNSGSLSSGVHTFPAVLQSDLYTLSSSVTVTSSTWPSQSITCNVAHPASSTKVDKKIEPRGPTIKPCPPCKCPAPNQSRGPSVFIFPPKIKDVLMISLSPIVTCVVVDVSEDDPDVQISWFVNNVEVHTAQTQTHREDYNSTLRVVSALPIQHQDWMSGKEFKCKVNNKDLPAPIERTISKPKGSVRAPQVYVLPPPEEEMTKKQVTLTCMVTDFMPEDIYVEWTNNGKTELNYKNTEPVLDSDGSYFMYSKLRVEKKNWVERNSYSCSVVHEGLHNHHTTKSFSRTPGK
light: QIVLSQSPAILSASPGEKVTMTCRASSSVSYIHWFQQKPGSSPKPWIYATSNLASGVPVRFSGSGSGTSYSLTISRVEAEDAATYYCQQWTSNPPTFGGGTKLEIKRADAAPTVSIFPPSSEQLTSGGASVVCFLNNFYPKDINVKWKIDGSERQNGVLNSWTDQDSKDSTYSMSSTLTLTKDEYERHNSYTCEATHKTSTSPIVKSFNRNEC
notes: copies: 2 + 2
- Mean Absorbance [4]: 1.45 absorbance (450 nm)
- Mean Absorbance [5]: 0.953 absorbance (450 nm)

B18: anti-CD20 human IgG1 L234G/L235S/G236R (antibody)
heavy: QVQLQQPGAELVKPGASVKMSCKASGYTFTSYNMHWVKQTPGRGLEWIGAIYPGNGDTSYNQKFKGKATLTADKSSSTAYMQLSSLTSEDSAVYYCARSTYYGGDWYFNVWGAGTTVTVSSASTKGPSVFPLAPSSKSTSGGTAALGCLVKDYFPEPVTVSWNSGALTSGVHTFPAVLQSSGLYSLSSVVTVPSSSLGTQTYICNVNHKPSNTKVDKKVEPKSCDKTHTCPPCPAPEGSRGPSVFLFPPKPKDTLMISRTPEVTCVVVDVSHEDPEVKFNWYVDGVEVHNAKTKPREEQYNSTYRVVSVLTVLHQDWLNGKEYKCKVSNKALPAPIEKTISKAKGQPREPQVYTLPPSRDELTKNQVSLTCLVKGFYPSDIAVEWESNGQPENNYKTTPPVLDSDGSFFLYSKLTVDKSRWQQGNVFSCSVMHEALHNHYTQKSLSLSPGK
light: QIVLSQSPAILSASPGEKVTMTCRASSSVSYIHWFQQKPGSSPKPWIYATSNLASGVPVRFSGSGSGTSYSLTISRVEAEDAATYYCQQWTSNPPTFGGGTKLEIKRTVAAPSVFIFPPSDEQLKSGTASVVCLLNNFYPREAKVQWKVDNALQSGNSQESVTEQDSKDSTYSLSSTLTLSKADYEKHKVYACEVTHQGLSSPVTKSFNRGEC
notes: also called 1-59; 2-19; copies: 2 + 2
- Mean binding response [6]: 21.8 RU
- binding result [1]: no binding (tested: 100 µg/mL)
- binding result [2]: no binding (tested: 100 µg/mL)
- binding result [3]: no binding (tested: 100 µg/mL)

B19: anti-CD20 human IgG1 L234T/L235T/G236R (antibody)
heavy: B18 heavy with G238T, S239T
light: B18 light
notes: also called 1-165; 2-63; copies: 2 + 2
- binding result [1]: no binding (tested: 100 µg/mL)
- binding result [2]: no binding (tested: 100 µg/mL)
- binding result [3]: no binding (tested: 100 µg/mL)

B20: anti-CD20 human IgG1 L234T/L235Q/G236R (antibody)
heavy: B18 heavy with G238T, S239Q
light: B18 light
notes: also called 2-60; copies: 2 + 2
- Mean binding response [6]: 17 RU
- binding result [1]: no binding (tested: 100 µg/mL)
- binding result [2]: no binding (tested: 100 µg/mL)
- binding result [3]: no binding (tested: 100 µg/mL)

B21: anti-CD20 human IgG1 L234S/L235T/G236R (antibody)
heavy: B18 heavy with G238S, S239T
light: B18 light
notes: also called 1-150; 2-52; copies: 2 + 2
- Mean binding response [6]: 16.2 RU
- binding result [1]: no binding (tested: 100 µg/mL)
- binding result [2]: no binding (tested: 100 µg/mL)
- binding result [3]: no binding (tested: 100 µg/mL)
